Laboratory results published in US20190248916A1 (Hoffmann-La Roche, published 2019).
Several values for one entry are separate records, joined by “and”; a condition that tells them apart may be missing. Identical values can stand only once. Like-named read-outs stand apart in the source and are kept apart here.

What was measured:
[1] = target: T1, HLA-A2/WT1RMF complex on cells (human); experiment: flow cytometry on peptide-pulsed T2 cells, anti-human Fc secondary, MFI
T1 construct: also called RMF peptide-pulsed T2 cells; SKM-1 cells
Text: (§1) We first measured the binding specificity on peptide-pulsed T2 cells by the IgG binders generated from phage display by flow cytometry. […] Cells were acquired on FACS LSR II (BD), and data are presented as mean fluorescence intensity (MFI) of PE in Graphpad Prism.

[2] = target: HLA-A2 with MED13L peptide … on peptide-pulsed T2 cells (human); experiment: as above
Text: as §1

CD3 = target: T2, CD3 (Homo sapiens (Human), UniProt P07766 23-126); experiment: method not stated
T2 construct: also called human CD3

[3] = target: HLA-A2 on unpulsed T2 cells (human); experiment: flow cytometry on unpulsed T2 cells, anti-human IgG-Fc PE secondary, MFI
Text: (§2) Cells were acquired on FACS LSR II (BD), and data are presented as mean fluorescence intensity (MFI) of PE in Graphpad Prism.

[4] = target: T1, HLA-A2/WT1RMF complex on cells; experiment: flow cytometry on peptide-pulsed T2 cells, anti-human IgG-Fc PE secondary, MFI
Text: as §1

[5] = target: T3, HLA-A2/WT1VLD complex on VLD peptide-pulsed T2 cells (human); experiment: as above
Text: as §1

[6] = target: T1, HLA-A2/WT1RMF complex on cells; experiment: as above; remark: listed apart in the source
Text: as §1

[7] = target: T3, HLA-A2/WT1VLD complex on VLD …; experiment: as above; remark: listed apart in the source
Text: as §1

[8] = target: T4, HLA-A2/WT1VLD complex (soluble) (human); experiment: SPR, pMHC captured by anti-His
T4 construct: also called HLA-A02/WT1VLD pMHC; HLA-A02/VLD pMHC
Experimental: (§3) For determination of avidity and specificity of the HLA-A2/WT1×CD3 bispecific antibodies to HLA-A2/WT1RMF, SPR experiments were again performed at 25° C. on a Biacore T200 with HBS-EP as running buffer (0.01 M HEPES pH 7.4, 0.15 M NaCl, 0.005% Surfactant P20 (GE Healthcare)). […] The HLA-A2/WT1RMF or HLA-A2/WT1VLD was captured for 30 sec and 10 μl/min at 5 or 10 nM (for the bispecific antibody or IgG measurement, respectively). […] The dissociation phase was monitored for 240 sec and triggered by switching from the sample solution to HBS-EP. The chip surface was regenerated after every cycle using an injection of 10 mM glycine pH 2 for 60 sec. Bulk refractive index differences were corrected for by subtracting the response obtained on the reference flow cell (which contains the anti-His antibody, but without HLA-A2/WT1RMF captured on it). Even though it is a 2:1 interaction (analyte is bivalent) the affinity constants were derived from the kinetic rate constants by fitting to a 1:1 Langmuir binding using the BIAeval software (GE Healthcare).

[9] = target: T5, HLA-A2/WT1RMF complex (soluble) (human); experiment: SPR, antibody captured (anti-human Fc), pMHC in solution; affinity
T5 construct: also called HLA-A02/WT1RMF pMHC; HLA-A02/RMF pMHC
Experimental: The bispecific constructs were captured for 30 s at 5 nM. […] The dissociation phase was monitored for 120 s and triggered by switching from the sample solution to HBS-EP. The chip surface was regenerated after every cycle using an injection of 3M MgCl₂ at 10 μl/min for 30 sec. Bulk refractive index differences were corrected for by subtracting the response obtained on the reference flow cell which contains the anti-human Fc antibody, but without bispecific construct captured on it. The affinity constants were derived from the kinetic rate constants by fitting to a 1:1 Langmuir binding using the BIAeval software (GE Healthcare).

[10] = target: T5, HLA-A2/WT1RMF complex (soluble); experiment: SPR, pMHC captured (anti-His), bivalent antibody in solution; avidity, average
Experimental: as §3

[11] = target: HLA-A2 on unpulsed T2 cells (human); experiment: flow cytometry on unpulsed T2 cells, anti-human IgG-Fc PE secondary, MFI; remark: listed apart in the source
Text: as §2

[12] = target: T1, HLA-A2/WT1RMF complex on cells; experiment: flow cytometry on peptide-pulsed T2 cells, anti-human IgG-Fc PE secondary, MFI; remark: listed apart in the source
Text: as §1

[13] = target: T3, HLA-A2/WT1VLD complex on VLD …; experiment: as above; remark: listed apart in the source
Text: as §1

[14] = target: T5, HLA-A2/WT1RMF complex (soluble); experiment: SPR, pMHC captured (anti-His), bivalent antibody in solution; apparent KD (avidity), average
Experimental: as §3

[15] = target: T1, HLA-A2/WT1RMF complex on cells; experiment: flow cytometry on peptide-pulsed T2 cells, anti-human IgG-Fc PE secondary, MFI; remark: listed apart in the source
Text: as §1

[16] = target: T3, HLA-A2/WT1VLD complex on VLD …; experiment: as above; remark: listed apart in the source
Text: as §1

[17] = target: T3, HLA-A2/WT1VLD complex on VLD …; experiment: as above; remark: listed apart in the source
Text: as §1

[18] = target: HLA-A2 on unpulsed T2 cells (human); experiment: flow cytometry on unpulsed T2 cells, anti-human IgG-Fc PE secondary, MFI; remark: listed apart in the source
[19] = target: T1, HLA-A2/WT1RMF complex on cells; experiment: flow cytometry on peptide-pulsed T2 cells, anti-human IgG-Fc PE secondary, MFI; remark: listed apart in the source
Text: as §1

[20] = target: T3, HLA-A2/WT1VLD complex on VLD …; experiment: as above; remark: listed apart in the source
Text: as §1

[21] = target: T1, HLA-A2/WT1RMF complex on cells; experiment: as above; remark: listed apart in the source
Text: as §1

[22] = target: T3, HLA-A2/WT1VLD complex on VLD …; experiment: as above; remark: listed apart in the source
Text: as §1

B1: ESK1-TCB (bispecific antibody, V domains shown)
VH 1: QMQLVQSGAEVKEPGESLRISCKGSGYSFTNFWISWVRQMPGKGLEWMGRVDPGYSYSTYSPSFQGHVTISADKSTSTAYLQWNSLKASDTAMYYCARVQYSGYYDWFDPWGQGTLVTVSS
VL 1: not shown
VH 2: not shown
VL 2: QAVVTQEPSLTVSPGGTVTLTCGSSTGAVTTSNYANWVQEKPGQAFRGLIGGTNKRAPGTPARFSGSLLGGKAALTLSGAQPEDEAEYYCALWYSNLWVFGGGTKLTVL
[1]
  EC50 (read off the curve): ~1 µg/mL
[2]
  EC50 (read off the curve): ~0.3 µg/mL

B2: CD3 binder CH2527 (antibody, V domains shown)
VH: not shown
VL: QAVVTQEPSLTVSPGGTVTLTCGSSTGAVTTSNYANWVQEKPGQAFRGLIGGTNKRAPGTPARFSGSLLGGKAALTLSGAQPEDEAEYYCALWYSNLWVFGGGTKLTVL
CD3
  Kd: 85 to 130 nM

B3: 5E11-IgG (antibody, V domains shown)
VH: QVQLVQSGAEVKKPGSSVKVSCKASGGTFSSYAISWVRQAPGQGLEWMGGIIPIFGTANYAQKFQGRVTITADKSTSTAYMELSSLRSEDTAVYYCARSSYDLYSFDYWGQGTTVTVSS
VL: DIQMTQSPSTLSASVGDRVTITCRASQSISSWLAWYQQKPGKAPKLLIYDASSLESGVPSRFSGSGSGTEFTLTISSLQPDDFATYYCQQYSFPPMITFGQGTKVEIK
[3]
  binding result: no binding (tested: 10 µg/ml)
[4]
  EC50 (read off the curve): ~0.7 µg/mL
[5]
  binding result: no binding (tested: 10 µg/ml)

B4: 5C01-IgG (antibody, V domains shown)
VH: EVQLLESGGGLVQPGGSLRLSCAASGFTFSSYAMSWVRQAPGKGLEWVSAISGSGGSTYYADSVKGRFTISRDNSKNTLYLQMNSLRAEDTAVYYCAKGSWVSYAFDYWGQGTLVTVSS
VL: DIQMTQSPSTLSASVGDRVTITCRASQSISSWLAWYQQKPGKAPKLLIYDASSLESGVPSRFSGSGSGTEFTLTISSLQPDDFATYYCQQYSIWFPYTFGQGTKVEIK
[6]
  binding result: no binding (tested: 1 µg/ml)
[7]
  EC50 (read off the curve): ~0.02 µg/mL

B5: 33H09-huIgG1 (antibody, V domains shown)
VH: QVQLVQSGAEVKKPGSSVKVSCKASGGTFSSYAISWVRQAPGQGLEWMGGIIPIFGTANYAQKFQGRVTITADKSTSTAYMELSSLRSEDTAVYYCARGSYDLFSLDYWGQGTTVTVSS
VL: DIQMTQSPSTLSASVGDRVTITCRASQSISSWLAWYQQKPGKAPKLLIYDASSLESGVPSRFSGSGSGTEFTLTISSLQPDDFATYYCQQYYDGITFGQGTKVEIK
notes: also called 33H09-IgG
[8]
  binding result: no binding (tested: 1.23 to 100 nM)
[9]
  Kd: 70 nM and 69 nM
  koff: 0.116 s⁻¹ and 0.124 s⁻¹
  kon: 1.67e+06 M⁻¹ s⁻¹ and 1.8e+06 M⁻¹ s⁻¹
[10]
  koff: 0.00357 s⁻¹
  kon: 4.74e+06 M⁻¹ s⁻¹
[11]
  binding result: no binding (tested: 1 µg/ml)
[12]
  EC50 (read off the curve): ~0.06 µg/mL
[13]
  binding result: no binding (tested: 1 µg/ml)
[14]
  Kd: 0.75 nM

B6: 13B04-IgG (antibody, V domains shown)
VH: EVQLLESGPGLVKPSETLSLTCTVSGGSISSYYWSWIRQPPGKGLEWIGYIYYSGSTNYNPSLKSRVTISVDTSKNQFSLKLSSVTAADTAVYYCARVSYNGLDYWGQGTLVTVSS
VL: DIQMTQSPSTLSASVGDRVTITCRASQSISSWLAWYQQKPGKAPKLLIYDASSLESGVPSRFSGSGSGTEFTLTISSLQPDDFATYYCQQYNMWNPVTFGQGTKVEIK
[15]
  binding result: no binding (tested: 1 µg/ml)
[16]
  EC50 (read off the curve): ~0.06 µg/mL

B7: 11G06-huIgG1 (antibody, V domains shown)
VH: QVQLVQSGAEVKKPGSSVKVSCKASGGTFSSYAISWVRQAPGQGLEWMGGIIPIFGTANYAQKFQGRVTITADKSTSTAYMELSSLRSEDTAVYYCARTGPYYGAFDYWGQGTTVTVSS
VL: DIQMTQSPSTLSASVGDRVTITCRASQSISSWLAWYQQKPGKAPKLLIYDASSLESGVPSRFSGSGSGTEFTLTISSLQPDDFATYYCQQGFRGYTFGQGTKVEIK
notes: also called 11G06-IgG
[17]
  binding result: binds

B8: CD3 binder V9 (antibody, V domains shown)
VH: EVQLVESGGGLVQPGGSLRLSCAASGYSFTGYTMNWVRQAPGKGLEWVALINPYKGVSTYNQKFKDRFTISVDKSKNTAYLQMNSLRAEDTAVYYCARSGYYGDSDWYFDVWGQGTLVTVSS
VL: DIQMTQSPSSLSASVGDRVTITCRASQDIRNYLNWYQQKPGKAPKLLIYYTSRLESGVPSRFSGSGSGTDYTLTISSLQPEDFATYYCQQGNTLPWTFGQGTKVEIK
CD3
  Kd: 35 to 50 nM

B9: 11D06-huIgG1 (antibody, V domains shown)
VH: QVQLVQSGAEVKKPGSSVKVSCKASGGTFSSYAISWVRQAPGQGLEWMGGIIPIFGTANYAQKFQGRVTITADKSTSTAYMELSSLRSEDTAVYYCARSIELWWGGFDYWGQGTTVTVSS
VL: DIQMTQSPSTLSASVGDRVTITCRASQSISSWLAWYQQKPGKAPKLLIYDASSLESGVPSRFSGSGSGTEFTLTIGSLQPDDFATYYCQQYEDYTTFGQGTKVEIK
notes: also called 11D06-IgG; 11D06 IgG
[8]
  binding result: no binding (tested: 1.23 to 100 nM)
[9]
  Kd: 35 nM and 34 nM
  koff: 0.0378 s⁻¹ and 0.0357 s⁻¹
  kon: 1.08e+06 M⁻¹ s⁻¹ and 1.04e+06 M⁻¹ s⁻¹
[10]
  koff: 0.00181 s⁻¹
  kon: 2.97e+06 M⁻¹ s⁻¹
[18]
  binding result: no binding (tested: 10 µg/ml)
[19]
  EC50 (read off the curve): ~0.06 µg/mL
[20]
  binding result: no binding (tested: 10 µg/ml)
[14]
  Kd: 0.61 nM

B10: 11B09-IgG (antibody, V domains shown)
VH: QVQLVQSGAEVKKPGSSVKVSCKASGGTFSSYAISWVRQAPGQGLEWMGGIIPIFGTANYAQKFQGRVTITADKSTSTAYMELSSLRSEDTAVYYCARVPGRWYGAMDYWGQGTTVTVSS
VL: DIQMTQSPSTLSASVGDRVTITCRASQSISSWLAWYQQKPGKAPKLLIYDASSLESGVPSRFSGSGSGTEFTLTISSLQPDDFATYYCQQEDDYPLTFGQGTKVEIK
[21]
  binding result: no binding (tested: 1 µg/ml)
[22]
  EC50 (read off the curve): ~0.02 µg/mL
